Assay results: patent US20250320312A1 (OXITOPE PHARMA B V, published 2025)
Residue numbers refer to the chain shown, from its start.

T1: Peptide 8: Biotin-AEAAAKEAAAKEAAAKEAAAKAAA-Tyr-acid (N-terminal biotin; C-terminal acid)
T1 construct: control peptide without PC
T1 peptide: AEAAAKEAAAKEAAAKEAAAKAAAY

T2: Peptide 4: Biotin-AGGGGSGGGGSGGGGSAAA-Tyr-acid (N-terminal biotin; C-terminal acid)
T2 construct: control peptide without PC
T2 peptide: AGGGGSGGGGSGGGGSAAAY

B1: PcOxP_DB01_B07 (scFv, V domains shown)
VH: EVQLLESGGGLVQPGGSLRLSCAASGFTFSDYYMEWVRQAPGKGLEWVAASRNKANDYTTEYADSVKGRFTISRDNSKNTLYLQMNSLRAEDTAVYYCARDYYGSSYWYFDVWGQGTLVTVSS
VL: DIQMTQSPSSLSASVGDRVTITCTASESLYSSKHKVHYLAWYQQKPGKAPKLLIYGASNRYIGVPSRFSGSGSGTDFTLTISSLQPEDFATYYCAQFYSYPLTFGGGTKVEIK
notes: scFv in periplasmic extract
B2: PcOxP_DB01_E04 (scFv, V domains shown)
VH: B1 VH with Y32A, V112T
VL: B1 VL with I62D
notes: scFv in periplasmic extract
B3: PcOxP_DB01_B05 (scFv, V domains shown)
VH: B1 VH with F29A, Y32F, A55W
VL: B1 VL with N59S, R60L, Y61Q
notes: scFv in periplasmic extract
B4: PcOxP_DB01_C01 (scFv, V domains shown)
VH: B1 VH with Y32F
VL: B1 VL with T24V
notes: scFv in periplasmic extract
B5: PcOxP_DB01_C06 (scFv, V domains shown)
VH: B1 VH with T28E, Y32N
VL: B1 VL with Y61F, S99Y
notes: scFv in periplasmic extract
B6: PcOxP_DB01_D05 (scFv, V domains shown)
VH: B1 VH with Y32G, S106P
VL: B1 VL with I62V
notes: scFv in periplasmic extract
B7: PcOxP_DB01_B08 (scFv, V domains shown)
VH: B1 VH with Y32S, E61S
VL: B1 VL
notes: scFv in periplasmic extract
B8: PcOxP_DB01_E06 (scFv, V domains shown)
VH: B1 VH with Y32Q, V112L
VL: B1 VL with L39V, S99Y
notes: scFv in periplasmic extract
B9: PcOxP_DB01_B11 (scFv, V domains shown)
VH: B1 VH with S30E, Y32F, Y103F
VL: B1 VL with I62H
notes: scFv in periplasmic extract
B10: PcOxP_DB01_B01 (scFv, V domains shown)
VH: B1 VH with Y32Q, M34I, Y103L
VL: B1 VL with N59H, S99A
notes: scFv in periplasmic extract
B11: PcOxP_DB01_B09 (scFv, V domains shown)
VH: B1 VH
VL: B1 VL with I62T, S99H
notes: scFv in periplasmic extract
B12: PcOxP_DB01_E11 (scFv, V domains shown)
VH: B1 VH with Y32F, T59V
VL: B1 VL with E27F, I62P, S99Y
notes: scFv in periplasmic extract
B13: PcOxP_DB01_C03 (scFv, V domains shown)
VH: B1 VH with Y32Q
VL: B1 VL with S99Q
notes: scFv in periplasmic extract
B14: PcOxP_DB01_A06 (scFv, V domains shown)
VH: B1 VH
VL: B1 VL with Q96E
notes: scFv in periplasmic extract
B15: PcOxP_DB01_C12 (scFv, V domains shown)
VH: B1 VH with Y32F, Y62L
VL: B1 VL with S58A, S99V
notes: scFv in periplasmic extract
B16: PcOxP_DB01_D09 (scFv, V domains shown)
VH: B1 VH with F29E, Y32F
VL: B1 VL with S32A, A57S, S99D
notes: scFv in periplasmic extract
B17: PcOxP_DB01_A12 (scFv, V domains shown)
VH: B1 VH with T28G, Y32F, A55W, F110Y
VL: B1 VL with Y61E, A95Q
notes: scFv in periplasmic extract
B18: PcOxP_DB01_C08 (scFv, V domains shown)
VH: B1 VH with Y32G, G104A
VL: B1 VL with T24R, L29I, Y30S, H34N, I62Y
notes: scFv in periplasmic extract
B19: PcOxP_DB01_D08 (scFv, V domains shown)
VH: B1 VH with Y32A, V112S
VL: B1 VL
notes: scFv in periplasmic extract
B20: PcOxP_DB01_C04 (scFv, V domains shown)
VH: B1 VH with T28Q, Y32F
VL: B1 VL with S99Y
notes: scFv in periplasmic extract
B21: PcOxP_DB01_E05 (scFv, V domains shown)
VH: B1 VH
VL: B1 VL with H37N, S99Q
notes: scFv in periplasmic extract
B22: PcOxP_DB01_C05 (scFv, V domains shown)
VH: B1 VH with Y32G
VL: B1 VL with A57S, S99A
notes: scFv in periplasmic extract
B23: PcOxP_DB01_D02 (scFv, V domains shown)
VH: B1 VH with T28E, Y32F, N53G, A55G, D57S
VL: B1 VL with A95G
notes: scFv in periplasmic extract
B24: PcOxP_DB01_B04 (scFv, V domains shown)
VH: B1 VH with Y32G
VL: B1 VL
notes: scFv in periplasmic extract

Molecular target: T1, Peptide 8: …
Test: scFv ELISA
Description: (§1) For ELISA analysis of scFv binding, 96-well polystyrene plates were coated with Peptide 1, 4, 5, 8 or 100 μL BSA (10 μg/mL) in PBS at 4° C. overnight. Plates were washed three times with PBS-Tween and blocked with 100 μL 1% BSA-TBS for 1 hour at room temperature. 96-well streptavidin coated plates were coated with 100 μL biotinylated PC-peptides (1 μg/mL) in PBS for 1 hour at room temperature.
(§2) All plates were washed three times with PBS-Tween before 40 μL aliquots of PPE were added to assay plates along with 50 μL 10% BSA, and plates were incubated for 1 hour at room temperature. After washing, […] HRP conjugated anti-V5 in 5% BSA was added, and plates were incubated at room temperature for 30 mins. Plates were washed and 100 μL TMB substrate was added. Color was left to develop at room temperature before the reaction was stopped with 100 μL 1N HCl. The amount of scFv bound to each well was quantitated from absorbance measurement at 450 nm (OD450).

Binder | OD450 [OD450]
B1 | 0.05
B2 | 0.04
B3 | 0.05
B4 | 0.05
B5 | 0.05
B6 | 0.05
B7 | 0.05
B8 | 0.05
B9 | 0.04
B10 | 0.05
B11 | 0.05
B12 | 0.06
B13 | 0.05
B14 | 0.06
B15 | 0.05
B16 | 0.05
B17 | 0.05
B18 | 0.05
B19 | 0.05
B20 | 0.05
B21 | 0.06
B22 | 0.06
B23 | 0.05
B24 | 0.05

Molecular target: T2, Peptide 4: …
Test: scFv ELISA
Description: as §1, §2

Binder | OD450 [OD450]
B1 | 0.06
B2 | 0.05
B3 | 0.05
B4 | 0.06
B5 | 0.05
B6 | 0.06
B7 | 0.06
B8 | 0.05
B9 | 0.05
B10 | 0.07
B11 | 0.05
B12 | 0.05
B13 | 0.06
B14 | 0.06
B15 | 0.05
B16 | 0.05
B17 | 0.06
B18 | 0.06
B19 | 0.05
B20 | 0.05
B21 | 0.06
B22 | 0.06
B23 | 0.05
B24 | 0.06

Each binder was assayed against Peptide 5: Biotin-…-[Tyr(PC)]-acid (assay: scFv ELISA).

Binder | OD450 [OD450]
B1 | 1.36
B2 | 1.12
B3 | 0.74
B4 | 1.13
B5 | 1.31
B6 | 1.56
B7 | 0.89
B8 | 1.05
B9 | 1.32
B10 | 0.9
B11 | 1.42
B12 | 0.73
B13 | 1.37
B14 | 1.18
B15 | 1.18
B16 | 0.66
B17 | 1.04
B18 | 0.79
B19 | 1.08
B20 | 1.42
B21 | 1.39
B22 | 1.11
B23 | 1.27
B24 | 1.02

Each binder was assayed against BSA (UniProt P02769) (assay: scFv ELISA).
Chain of BSA (P02769 25-607 limits assumed): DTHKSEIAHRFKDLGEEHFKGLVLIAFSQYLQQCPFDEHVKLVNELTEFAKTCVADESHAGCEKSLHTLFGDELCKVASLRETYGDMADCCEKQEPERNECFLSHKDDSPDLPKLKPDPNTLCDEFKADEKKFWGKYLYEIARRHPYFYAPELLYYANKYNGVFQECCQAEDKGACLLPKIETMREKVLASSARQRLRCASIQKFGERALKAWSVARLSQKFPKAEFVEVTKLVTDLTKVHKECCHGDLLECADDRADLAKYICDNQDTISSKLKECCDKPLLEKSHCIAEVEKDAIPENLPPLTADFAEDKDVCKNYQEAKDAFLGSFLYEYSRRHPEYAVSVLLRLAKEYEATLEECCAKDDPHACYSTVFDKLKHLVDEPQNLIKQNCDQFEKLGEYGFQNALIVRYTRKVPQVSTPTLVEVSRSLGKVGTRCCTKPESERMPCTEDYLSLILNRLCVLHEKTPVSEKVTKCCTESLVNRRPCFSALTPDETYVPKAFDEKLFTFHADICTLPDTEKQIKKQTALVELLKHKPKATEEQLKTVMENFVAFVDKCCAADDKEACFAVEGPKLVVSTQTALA

Binder | OD450 [OD450]
B1 | 0.11
B2 | 0.07
B3 | 0.1
B4 | 0.11
B5 | 0.08
B6 | 0.1
B7 | 0.1
B8 | 0.09
B9 | 0.09
B10 | 0.1
B11 | 0.1
B12 | 0.09
B13 | 0.1
B14 | 0.1
B15 | 0.08
B16 | 0.07
B17 | 0.09
B18 | 0.1
B19 | 0.08
B20 | 0.08
B21 | 0.11
B22 | 0.11
B23 | 0.09
B24 | 0.08

These binders were tested against Peptide 1: Biotin-…-[Tyr(PC)]-acid (assay: scFv ELISA).

Binder | OD450 [OD450]
B1 | 1.07
B2 | 0.55
B3 | 0.23
B4 | 0.71
B5 | 1.18
B6 | 0.87
B7 | 0.41
B8 | 0.68
B9 | 1.11
B10 | 0.87
B11 | 1
B12 | 0.62
B13 | 0.98
B14 | 0.74
B15 | 0.88
B16 | 0.27
B17 | 0.29
B18 | 0.38
B19 | 0.58
B20 | 1.38
B21 | 0.95
B22 | 0.79
B23 | 0.56
B24 | 0.57
